Data set [1] addresses T1, phi29 DNA polymerase wild-type (Bacteriophage phi29, UniProt P03680 1-575).
T1 sequence: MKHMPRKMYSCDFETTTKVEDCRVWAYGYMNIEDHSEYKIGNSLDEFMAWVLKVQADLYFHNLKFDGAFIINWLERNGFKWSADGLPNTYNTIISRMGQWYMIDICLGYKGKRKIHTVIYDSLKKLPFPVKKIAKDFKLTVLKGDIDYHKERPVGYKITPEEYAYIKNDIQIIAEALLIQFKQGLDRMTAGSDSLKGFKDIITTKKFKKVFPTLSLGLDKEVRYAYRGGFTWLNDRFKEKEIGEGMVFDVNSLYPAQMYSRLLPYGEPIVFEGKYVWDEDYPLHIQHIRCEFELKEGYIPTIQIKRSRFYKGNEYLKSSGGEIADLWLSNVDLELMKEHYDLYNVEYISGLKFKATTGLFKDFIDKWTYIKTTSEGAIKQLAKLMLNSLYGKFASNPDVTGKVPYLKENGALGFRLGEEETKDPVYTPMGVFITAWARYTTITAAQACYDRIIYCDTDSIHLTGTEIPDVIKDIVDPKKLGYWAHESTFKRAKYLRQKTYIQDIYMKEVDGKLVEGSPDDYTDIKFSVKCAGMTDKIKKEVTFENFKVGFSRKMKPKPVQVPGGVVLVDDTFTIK
In words: EMSA. A general note: In EMSA bound probe runs differently from free probe, usually more slowly.

The target in data set [2] is T2, phi29 DNA polymerase G410C/P562C (Bacteriophage phi29, UniProt P03680 1-575, G410C;P562C).
T2 sequence: T1 sequence with G410C, P562C
In words: EMSA.

Where a chain is given by its changes, count along the chain named.

From publication PMC2615600 come the findings set out here.

B1: sp1/sp1c+6 (15/21mer primer/template) (dsDNA)
DNA 1: GATCACAGTGAGTAC
DNA 2: TCTATTGTACTCACTGTGATC
B1: the binding result in data set [1] was “binds”. Further, the binding signal in data set [2] was 3 % of wild-type (unit presumed).
